US20200399330A1, “ANTI-LEUKEMIC, ANTI-HIV, AND SIALIDASE ACTIVITIES OF ROYAL-JELLY PROTEINS” (priority 2018, published 2020)
Entries after “also recorded” stand apart in the source; their conditions may differ.

Assays:
[1] = test system: human T lymphocyte (Jurkat) leukemia cells; assay: Anti-leukemic activity, MTT assay and phase-contrast morphology, Jurkat; type: cell-based; conditions: 72 h
Method: (§1) Anti-leukemic activity of RJ and its fractions, Both leukemia cells (NFS-60 and Jurkat) were seeded in RPMI containing 10% FBS as 3000 cells/well in 96 well cell culture plate. Then serial concentrations from the safe dose of each of the tested RJ and its fractions was added and incubated for 72 h in a 5% CO2 incubator at 37° C. The cytotoxic effect of RJ and its fractions in comparison with DOX against both leukemia cell lines were investigated using the MTT assay as described above. Then the concentration that inhibits leukemia cell growth by 50% (IG50 value) was determined for the RJ and each of its fractions and used to select the effective fraction (the lowest IG50 value). The morphological changes of untreated and treated leukemia cells were examined using the phase-contrast microscope.

Jurkat cells [2] = assay: Fluorescence microscope investigation of apoptotic cells (EB/AO double staining), Jurkat; type: cell-based, human; conditions: 72 h
Method: (§2) Then leukemia cell apoptosis was investigated by ethidium bromide (EB)/acridine orange (AO) double staining (100 μg/mL for each) and then visualized under the fluorescent phase contrast microscope (Olympus, Japan).

NFS-60 cells [3] = assay: Fluorescence microscope investigation of apoptotic cells (EB/AO double staining), NFS-60; type: cell-based, murine; conditions: NFS-60, 72 h
Method: as §2

[4] = test system: murine myeloid (NFS-60) leukemia cells; assay: Anti-leukemic activity, MTT assay and phase-contrast morphology, NFS-60; type: cell-based; conditions: NFS-60, 72 h
Method: as §1

HepG2 cells = assay: Sialidase activity (release of cellular SA), HepG2; type: cell-based; conditions: 2 h and 72 h incubation
Method: (§3) The sialidase catalytic activity of the RJ isolated PFs was evaluated by incubating different concentrations (500, 250, 125, 62.5, 31.25) of each of the RJ-PFs (CPF, PF25, PF30, PF40, PF50, PF60, MRJP2 and MRJP2 isoform X1) with PBMCs or HepG2 cells at 37° C. for 2 h and 72 h. Two controls were included, each PF alone without cells and each cell alone without PF. At the end of the incubation period, the released SA concentration was quantified followed the previously published method.
(§4) Preparation of SA-attached cells, PBMCs were obtained by Ficoll-Hypaque density gradient centrifugation method as described previously. […] Finally, the supernatant was removed and the cells were suspended in 5 ml of RPMI-1640 medium containing 10% FBS and counted using trypan blue stain. […]
(§5) The SA assay, SA concentration was measured by the alkali-Ehrlich method using 0.2 M borate buffer at pH 8.5. After the incubation period (2 h or 72 h), cell culture was centrifuged at 2000 rpm for 15 min and the SA content was quantified in the supernatant. […] The developed violet color was read at 560 nm. The SA concentration (nmol/mL) was calculated from the standard SA calibration curve and used to calculate the sialidase activity of the RJPF as nmol/ml/min (IU). The specific activity (IU/mg protein) was calculated after determination of the protein content (mg/mL) in the supernatant using the Bradford method.

PBMCs = assay: Sialidase activity (release of cellular SA), PBMCs; type: cell-based, human; conditions: 2 h and 72 h incubation
Method: as §3, §4, §5

NFS-60 cells [5] = assay: Cell cycle distribution by flow cytometry, NFS-60; type: cell-based, murine; conditions: NFS-60, at IG50, 72 h
Method: (§6) Briefly, the untreated and treated leukemia cells were incubated with 5 μg/mL RNase A (Sigma, USA) then mixed with 10 μl of 1 mg/mL PI (Sigma, USA) for flow cytometry analysis at 488 nm using Cell Quist and Mod Fit softwares.

NFS-60 cells [6] = assay: Flow cytometric analysis of apoptosis (annexin V/PI), NFS-60; type: cell-based, murine; conditions: NFS-60, at IG50, 72 h
Method: (§7) Flow cytometric analysis of apoptosis, RJ, its effective fractions (CPF, PF50, MRJP2, and MRJP2 X1), and DOX at their IG50 was incubated for 72 h with each of the leukemia cell lines. After trypsinization, the untreated and treated cells were incubated with annexin V/propidium iodide (PI) for 15 min. Then cells were fixed and incubated with streptavidin-fluorescein (5 μg/mL) for 15 min. The apoptosis-dependent anti-leukemic effect was determined by quantification of annexin-stained apoptotic cells using the Fluorescein isothiocyanate (FITC) signal detector (FL1) in the flow cytometer (Partec, Germany).

Jurkat cells [7] = assay: Flow cytometric analysis of apoptosis (annexin V/PI), Jurkat; type: cell-based, human; conditions: at IG50, 72 h
Method: as §7

Jurkat cells [8] = assay: Cell cycle distribution by flow cytometry, Jurkat; type: cell-based, human; conditions: at IG50, 72 h
Method: as §6

Molecule | IG50 (concentration that inhibits leukemia cell growth by 50%) ([1]; MTT) | apoptotic cell populations by EB/AO double staining (Jurkat cells [2]) | apoptotic cell populations by EB/AO double staining (NFS-60 cells [3]) | IG50 (concentration that inhibits leukemia cell growth by 50%) ([4]; MTT) | sialidase activity (released SA) (HepG2 cells) | sialidase activity (released SA) (PBMCs) | morphological changes under the phase contrast microscope [1] | cell cycle distribution (G0, G1, S, G2/M) (NFS-60 cells [5]) | % apoptotic cells (annexin V/PI) (NFS-60 cells [6]) | % apoptotic cells (annexin V/PI) (Jurkat cells [7]) | cell cycle distribution (G0, G1, S, G2/M) (Jurkat cells [8]) | morphological changes under the phase contrast microscope [4]
COc1cccc2c1C(=O)c1c(O)c3c(c(O)c1C2=O)C[C@@](O)(C(=O)CO)C[C@@H]3O[C@H]1C[C@H](N)[C@H](O)[C@H](C)O1 [DOX, Doxorubicin, reference compound] | significantly more potent than the tested fractions | increased the number of the late apoptotic cells | increased the number of the late apoptotic cells | significantly more potent than the tested fractions |  |  |  |  |  |  |  | 
MRJP2: bound protein purified from PF50 by CM-Sephadex ion-exchange chromatography (protein, UniProt O77061 18-452, looked up) Major royal jelly protein 2: AIVRENSPRNLEKSLNVIHEWKYFDYDFGSEERRQAAIQSGEYDHTKNYPFDVDQWRDKTFVTILRYDGVPSTLNVISGKTGKGGRLLKPYPDWSFAEFKDCSKIVSAFKIAIDKFDRLWVLDSGLVNRTVPVCAPKLHVFDLKTSNHLKQIEIPHDIAVNATTGKGGLVSLAVQAIDLANTLVYMADHKGDALIVYQNADDSFHRLTSNTFDYDPRYAKMTIDGESFTLKNGICGMALSPVTNNLYYSPLASHGLYYVNTAPFMKSQFGENNVQYQGSEDILNTQSLAKAVSKNGVLFVGLVGNSAVGCWNEHQSLQRQNLEMVAQNDRTLQMIAGMKIKEELPHFVGSNKPVKDEYMLVLSNRMQKIVNDDFNFDDVNFRILGANVKELIRNTHCVNNNQNDNIQNTNNQNDNNQKNNKKNANNQKNNNQNDN |  | increased the number of the late apoptotic cells | increased the number of the late apoptotic cells |  | proven their sialidase activity | proven their sialidase activity | hallmarks of the apoptosis, which observed obviously | almost completely blocking the cell cycle G0 phase; also recorded: the most effective fraction with the same or higher potency than DOX | inducing apoptosis; also recorded: highest percentage of the apoptotic cell populations | inducing apoptosis; also recorded: highest percentage of the apoptotic cell populations | almost completely blocking the cell cycle G0 phase; also recorded: the most effective fraction with the same or higher potency than DOX | hallmarks of the apoptosis, which observed obviously
